Reference: patent US20220235136A1 (YALE UNIVERSITY, published 2022)

T1: human CD93 on cells (CD93-transfected HEK293T cells; endogenous on HUVEC cells) (human, UniProt Q9NPY3 22-652)
T1 construct: in the co-immunoprecipitation it comes from HUVEC lysate; also called CD93 transfectant; CD93+ 293 cells
T1 sequence: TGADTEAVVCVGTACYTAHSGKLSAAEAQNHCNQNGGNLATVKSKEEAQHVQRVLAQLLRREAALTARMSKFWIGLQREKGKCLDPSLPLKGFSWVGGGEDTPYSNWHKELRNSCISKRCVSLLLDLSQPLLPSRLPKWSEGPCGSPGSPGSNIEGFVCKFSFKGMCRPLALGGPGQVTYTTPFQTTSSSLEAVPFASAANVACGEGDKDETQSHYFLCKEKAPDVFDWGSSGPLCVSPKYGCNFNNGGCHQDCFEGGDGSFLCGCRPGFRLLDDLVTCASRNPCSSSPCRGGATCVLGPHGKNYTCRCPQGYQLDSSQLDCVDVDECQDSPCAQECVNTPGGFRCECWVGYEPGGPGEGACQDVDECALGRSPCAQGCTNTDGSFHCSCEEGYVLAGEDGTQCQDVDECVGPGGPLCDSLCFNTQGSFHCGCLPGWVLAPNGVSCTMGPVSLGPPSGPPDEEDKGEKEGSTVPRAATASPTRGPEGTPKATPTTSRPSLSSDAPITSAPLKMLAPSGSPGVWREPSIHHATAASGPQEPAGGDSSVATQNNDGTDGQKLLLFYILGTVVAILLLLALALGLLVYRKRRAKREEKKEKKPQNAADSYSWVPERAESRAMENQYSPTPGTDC

T2: IGFBP7 protein (R&D Systems), labelled with a His-Tag Labeling Kit for MST (human, UniProt Q16270 27-282, RED-tris-NTA fluorescent dye bound to the His tag)
T2 construct: Bought; also called human IGFBP7; not shown: His tag implied by the His-Tag Labeling Kit
T2 sequence: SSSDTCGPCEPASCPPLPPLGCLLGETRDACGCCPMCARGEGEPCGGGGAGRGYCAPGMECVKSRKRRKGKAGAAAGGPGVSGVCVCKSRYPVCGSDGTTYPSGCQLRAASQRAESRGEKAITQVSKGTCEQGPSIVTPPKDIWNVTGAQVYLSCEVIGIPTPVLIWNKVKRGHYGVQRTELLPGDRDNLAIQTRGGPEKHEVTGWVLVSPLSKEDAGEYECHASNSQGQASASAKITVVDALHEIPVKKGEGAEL

B1: ESM1 (Fc fusion, human, UniProt Q9NQ30 20-184, looked up)
fusion chain: WSNNYAVDCPQHCDSSECKSSPRCKRTVLDDCGCCRVCAAGRGETCYRTVSGMDGMKCGPGLRCQPSNGEDPFGEEFGICKDCPYGTFGMDCRETCNCQSGICDRGTGKCLKFPFFQYSVTKSSNRFVSLTEHDMASGDGNIVREEVVKENAAGSPVMRKWLNPR
notes: member of the group m19; HEK293T supernatant
B2: IGFBP4 (Fc fusion, human, UniProt P22692 22-258, looked up)
fusion chain: DEAIHCPPCSEEKLARCRPPVGCEELVREPGCGCCATCALGLGMPCGVYTPRCGSGLRCYPPRGVEKPLHTLMHGQGVCMELAEIEAIQESLQPSDKDEGDHPNNSFSPCSAHDRRCLQKHFAKIRDRSTSGGKMKVNGAPREDARPVPQGSCQSELHRALERLAASQSRTHEDLYIIPIPNCDRNGNFHPKQCHPALDGQRGKCWCVDRKTGVKLPGGLEPKGELDCHQLADSFRE
notes: as for B1
B3: KAZALD1 (Fc fusion, human, UniProt Q96I82 31-304, looked up)
fusion chain: RPSPGPDYLRRGWMRLLAEGEGCAPCRPEECAAPRGCLAGRVRDACGCCWECANLEGQLCDLDPSAHFYGHCGEQLECRLDTGGDLSRGEVPEPLCACRSQSPLCGSDGHTYSQICRLQEAARARPDANLTVAHPGPCESGPQIVSHPYDTWNVTGQDVIFGCEVFAYPMASIEWRKDGLDIQLPGDDPHISVQFRGGPQRFEVTGWLQIQAVRPSDEGTYRCLGRNALGQVEAPASLTVLTPDQLNSTGIPQLRSLNLVPEEEAESEENDDYY
notes: as for B1
B4: IGFBP2 (Fc fusion, human, UniProt P18065 36-325, looked up)
fusion chain: AEVLFRCPPCTPERLAACGPPPVAPPAAVAAVAGGARMPCAELVREPGCGCCSVCARLEGEACGVYTPRCGQGLRCYPHPGSELPLQALVMGEGTCEKRRDAEYGASPEQVADNGDDHSEGGLVENHVDSTMNMLGGGGSAGRKPLKSGMKELAVFREKVTEQHRQMGKGGKHHLGLEEPKKLRPPPARTPCQQELDQVLERISTMRLPDERGPLEHLYSLHIPNCDKHGLYNLKQCKMSLNGQRGECWCVNPNTGKLIQGAPTIRGDPECHLFYNEQQEARGVHTQRMQ
notes: as for B1
B5: IGFBP7 fused to a C-terminal Ig (made in transfected HEK293T cells, used as supernatant) (Fc fusion, not shown: a dimerising Fc or GST; small tags and cut ends)
chain: T2 sequence
notes: also called Fc tagged fusion protein of IGFBP7
B6: Human IGFBP7 (Fc-tag), Sino Biological (Fc fusion)
chain: T2 sequence
notes: Bought; also called IGFBP7-Ig; recombinant IGFBP7 protein; not shown: Fc tag of the bought fusion protein
B7: WISP3 (Fc fusion, human, UniProt O95389 24-354, looked up)
fusion chain: TGPLDTTPEGRPGEVSDAPQRKQFCHWPCKCPQQKPRCPPGVSLVRDGCGCCKICAKQPGEICNEADLCDPHKGLYCDYSVDRPRYETGVCAYLVAVGCEFNQVHYHNGQVFQPNPLFSCLCVSGAIGCTPLFIPKLAGSHCSGAKGGKKSDQSNCSLEPLLQQLSTSYKTMPAYRNLPLIWKKKCLVQATKWTPCSRTCGMGISNRVTNENSNCEMRKEKRLCYIQPCDSNILKTIKIPKGKTCQPTFQLSKAEKFVFSGCSSTQSYKPTFCGICLDKRCCIPNKSKMITIQFDCPNEGSFKWKMLWITSCVCQRNCREPGDIFSELKIL
notes: as for B1
B8: CYR61 (Fc fusion, human, UniProt O00622 25-381, looked up)
fusion chain: TCPAACHCPLEAPKCAPGVGLVRDGCGCCKVCAKQLNEDCSKTQPCDHTKGLECNFGASSTALKGICRAQSEGRPCEYNSRIYQNGESFQPNCKHQCTCIDGAVGCIPLCPQELSLPNLGCPNPRLVKVTGQCCEEWVCDEDSIKDPMEDQDGLLGKELGFDASEVELTRNNELIAVGKGSSLKRLPVFGMEPRILYNPLQGQKCIVQTTSWSQCSKTCGTGISTRVTNDNPECRLVKETRICEVRPCGQPVYSSLKKGKKCSKTKKSPEPVRFTYAGCLSVKKYRPKYCGSCVDGRCCTPQLTRTVKMRFRCEDGETFSKNVMMIQSCKCNYNCPHANEAAFPFYRLFNDIHKFRD
notes: as for B1
B9: IGFBP6 (Fc fusion, human, UniProt P24592 28-240, looked up)
fusion chain: RCPGCGQGVQAGCPGGCVEEEDGGSPAEGCAEAEGCLRREGQECGVYTPNCAPGLQCHPPKDDEAPLRALLLGRGRCLPARAPAVAEENPKESKPQAGTARPQDVNRRDQQRNPGTSTTPSQPNSAGVQDTEMGPCRRHLDSVLQQLQTEVYRGAQTLYVPNCDHRGFYRKRQCRSSQGQRRGPCWCVDRMGKSLPGSPDGNGSSSCPTGSSG
notes: as for B1
B10: WISP1 (Fc fusion, human, UniProt O95388 23-367, looked up)
fusion chain: TALSPAPTTMDFTPAPLEDTSSRPQFCKWPCECPPSPPRCPLGVSLITDGCECCKMCAQQLGDNCTEAAICDPHRGLYCDYSGDRPRYAIGVCAQVVGVGCVLDGVRYNNGQSFQPNCKYNCTCIDGAVGCTPLCLRVRPPRLWCPHPRRVSIPGHCCEQWVCEDDAKRPRKTAPRDTGAFDAVGEVEAWHRNCIAYTSPWSPCSTSCGLGVSTRISNVNAQCWPEQESRLCNLRPCDVDIHTLIKAGKKCLAVYQPEASMNFTLAGCISTRSYQPKYCGVCMDNRCCIPYKSKTIDVSFQCPDGLGFSRQVLWINACFCNLSCRNPNDIFADLESYPDFSEIAN
notes: as for B1
B11: CTGF (Fc fusion, human, UniProt P29279 27-349, looked up)
fusion chain: QNCSGPCRCPDEPAPRCPAGVSLVLDGCGCCRVCAKQLGELCTERDPCDPHKGLFCHFGSPANRKIGVCTAKDGAPCIFGGTVYRSGESFQSSCKYQCTCLDGAVGCMPLCSMDVRLPSPDCPFPRRVKLPGKCCEEWVCDEPKDQTVVGPALAAYRLEDTFGPDPTMIRANCLVQTTEWSACSKTCGMGISTRVTNDNASCRLEKQSRLCMVRPCEADLEENIKKGKKCIRTPKISKPIKFELSGCTSMKTYRAKFCGVCTDGRCCTPHRTTTLPVEFKCPDGEVMKKNMMFIKTCACHYNCPGDNDIFESLYYRKMYGDMA
notes: as for B1
B12: IGFBP1 (Fc fusion, human, UniProt P08833 26-259, looked up)
fusion chain: APWQCAPCSAEKLALCPPVSASCSEVTRSAGCGCCPMCALPLGAACGVATARCARGLSCRALPGEQQPLHALTRGQGACVQESDASAPHAAEAGSPESPESTEITEEELLDNFHLMAPSEEDHSILWDAISTYDGSKALHVTNIKKWKEPCRIELYRVVESLAKAQETSGEEISKFYLPNCNKNGFYHSRQCETSMDGEAGLCWCVYPWNGKRIPGSPEIRGDPNCQIYFNVQN
notes: as for B1
B13: recombinant human CD93 protein (R&D Systems) (receptor)
chain: ADTEAVVCVGTACYTAHSGKLSAAEAQNHCNQNGGNLATVKSKEEAQHVQRVLAQLLRREAALTARMSKFWIGLQREKGKCLDPSLPLKGFSWVGGGEDTPYSNWHKELRNSCISKRCVSLLLDLSQPLLPSRLPKWSEGPCGSPGSPGSNIEGFVCKFSFKGMCRPLALGGPGQVTYTTPFQTTSSSLEAVPFASAANVACGEGDKDETQSHYFLCKEKAPDVFDWGSSGPLCVSPKYGCNFNNGGCHQDCFEGGDGSFLCGCRPGFRLLDDLVTCASRNPCSSSPCRGGATCVLGPHGKNYTCRCPQGYQLDSSQLDCVDVDECQDSPCAQECVNTPGGFRCECWVGYEPGGPGEGACQDVDECALGRSPCAQGCTNTDGSFHCSCEEGYVLAGEDGTQCQDVDECVGPGGPLCDSLCFNTQGSFHCGCLPGWVLAPNGVSCTMGPVSLGPPSGPPDEEDKGEKEGSTVPRAATASPTRGPEGTPKATPTTSRPSLSSDAPITSAPLKMLAPSGSPGVWREPSIHHATAASGPQEPAGGDSSVATQNNDGTDGQK
notes: Bought soluble protein
B14: NOV (Fc fusion, not shown: a dimerising Fc or GST; small tags and cut ends)
chain: TQRCPPQCPGRCPATPPTCAPGVRAVLDGCSCCLVCARQRGESCSDLEPCDESSGLYCDRSADPSNQTGICTAVEGDNCVFDGVIYRSGEKFQPSCKFQCTCRDGQIGCVPRCQLDVLLPEPNCPAPRKVEVPGECCEKWICGPDEEDSLGGLTLAAYRPEATLGVEVSDSSVNCIEQTTEWTACSKSCGMGFSTRVTNRNRQCEMLKQTRLCMVRPCEQEPEQPTDKKGKKCLRTKKSLKAIHLQFKNCTSLHTYKPRFCGVCSDGRCCTPHNTKTIQAEFQCSPGQIVKKPVMVIGTCTCHTNCPKNNEAFLQELELKTTRGKM
notes: as for B1

Legend:
[1] = biological target: T1, human CD93 on cells (CD93-transfected …); assay: flow cytometry, HEK293T supernatant of the Fc-tagged protein on CD93 transfectant; binding index = MFI of CD93 transfectant / MFI of control cells
[2] = biological target: T1, human CD93 on cells (CD93-transfected …); assay: flow cytometry, HEK293T supernatant on CD93 transfectant; binding index = MFI of CD93 transfectant / MFI of control
[3] = biological target: T1, human CD93 on cells (CD93-transfected …); assay: flow cytometry, IGFBP7-Ig on CD93-transduced or control HEK293T cells
[4] = biological target: T2, IGFBP7 protein (R&D Systems), labelled …; assay: microscale thermophoresis (MST), CD93 titrated against 10 nM labelled IGFBP7

Row | Binder | binding result [1] | also measured
1 | B1 | no binding | –
2 | B2 | no binding | –
3 | B3 | no binding | –
4 | B4 | no binding | –
5 | B5 | – | binding result [2]: binds
6 | B6 | – | binding result [3]: binds
7 | B7 | no binding | –
8 | B8 | no binding | –
9 | B9 | no binding | –
10 | B10 | no binding | –
11 | B11 | no binding | –
12 | B12 | no binding | –
13 | B13 | – | EC50 (read off the curve) [4]: ~50 nM
14 | B14 | no binding | –
